Data from the NTF2 design screens of Basanta et al. (2020).

Experiment: protease stability score; higher = more stable; yeast display proteolysis, trypsin and chymotrypsin;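 note: relative to predicted unfolded state with 0 unfolded-like and 1 meaning tenfold more protease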

Sequence	protease stability score
DEKQEFIERIAKELLDSWLTGDEEHLRNMMDPHVRTDVNGREFHGREETIKAMQILGVDHLEIKDYRVINGRIHANSRMWIGDKQIETHLILRVVNGRVKEIKIEIR	1.97
DEKQRDIEEMARRFVEIFHTGDEENYLELADPDMRLDVGDKHYHGREDVHKWLHEELRRIKNATIRIKHIHVQGDKVHLEITIEIGDKHRKSHIHLQIVDGVIKRIEIRWS	1.09
DEKQVLELIRDVMKHVQNGNQEEVKKHGKPSVEVILFNERYTGPEALVRLAEFAQKLGAQFEYKETRHEGNKVKTKVEVTFGGTTVRYEVEVEAEGGKVVKWEVRASDEFDERVKKS	1.29
DEKREESERALNHLFKSMLTGDEEDVRKLADPHAKFIINGRSDIGRESVSHHWHRLWRELGVKHLDVRSFRVYDGRVDSKTRVEIGDKEHEMEVYIVKVNGRWHIEELEFR	-0.12
DEKRKEMEQLARIIIHLWETGDEEKWREYADPNTRLDVDGRNSHGMHNTLEVLRRRLEELGFDHVEMEIKHITVIGDKAQINGKVHLYWNGKTIDVPSEIIIVIINGRLHSIELRHE	1.44
DEKRKLAEEIMRLLLHAYKTGDEELIHKLADPDTRVIINGVDLHGWEEMNRHLEEIIRQFDHWDLKIRDFRIQGDKYHIHGHLIHIQGDKHIRHDVNFHIVFVNGRQTSNHIDIH	1.41
DEKRKVEERLLELIIEIFRTGDWEWYSELADPNVRVHQGEYHKHGREQASKHLLDELRHLGIKHIDERSYDVIDGQVYWHVRIEVGDKERQMHIRVRIVNGVLQHVHIEIH	1.17
DEKSDIYHQALRLWIDTMVTGDENLYERLLDPHVRVEIGDKEIHGRERVSEFFKRFAEHLGVDHVELHDFRYQGDYVRLRISIEYNGQHLDTDLIITKINGRWYIHSEKYK	1.26
DEKSEHILELLRLMLELLVTGDWSMLRKLVDPNARMYYGDKEFHGWEDMVKFIKILLERIDHVEIRLHNSDVQGEKAKSDGTLIERVNGQEVRFDSHIINIVVNGRAKEVRIEVH	1.22
DEKTEEIERFFKKWVEALRTGDWKTLMELLDPNARFDINGREIIGREIYVKILKEELKHFGVTRIHNEVEIKHSDEQGNKLNLDGKLIINWDGKNDETRLILYVLKVDGRWIIEEVRIR	1.44
DEKTEHERELSERLLKAILTGDEDLFKELADPNVRIISEIDGRKDESHGWTAWHRIMQSLGFNVMRIDHHELINGVQYVESTLDINGVRRKTHLIIRIINGKVKEVRFSID	1.88
DEKTEISEELLKIFVDLLQTGDEDIFQDMMDPRAQVHVNGKRIHGREHIIHWFREAHRHLGVKHTHIHRVEIQGEKVYIDGRLHYNGRDFNTHLIFDVINGRVKSMELRQH	1.09
DEKTEISEFALELFKESYDTGDEHTINRLADPHYRVVIGDKDLIGMEWLEHVIRHHKERVDHYRDVTVKDIKVIGNKVIADIRSHVHVDGQERDLDIDLVVFKINGRWRIKMIKID	1.15
DEKTEIVSRIMIVFFHALLTGDWETLKKNADPHVKLEAEGRKSHGMEELVRWIHEEIKRIPGIRFELKRYDVQGDKVEIEGRVRINGVEFELIIESVIVDGKLKSIREEWR	1.41
DEKTEKEQRWFEEILHAILTGDEEFLLRNADPNTRSHFNGRDVHGMELLSEIWTKHVEDLGFDHAHIRSVKVFDGRFILNMQIHVNGVELDVHLIYDVVDGVVKRVIVETHKH	0.442
DEKTEQSREIIELLLKALQTGDEDTLTELLDPHVKIHIGDKDYHGREEVSRLLQEFWDRFKNARIEIHDYRDINGRVHVDLRHVVGDKTYTSKWNILKVNGRWYIEQIHVH	2.07
DEKTKEVEHLTEYLREVWETGDFESLHEMMDPHVRVDIGDKHVHGREAVAHHFRKHLENWGVTRFRIEFHVRDVRDINGVVHLDTELRILFDGVLITMRTRFIIEKINGRWVFREVIVR	2.63
DEKYKRVEQAVRIYLELISTGDEEMISHYVDPNVQAEVGDYEHHGMEEFIKVVSRVDYLEHSEWKDWRYVDGRIEIEGHLYGKINGKRDVLDIRIIASKVNGKWRLHKVTIK	1.41
DELAEYAKEVIERIDHSITTGDERSVKRLLDPDVKLLIGDKELHGREDWEEWMKRIDHVSVRDSRIKEVKVYDGRLRIDGHKRMYYFNENEEREHTTRVVIILLKIDGRWVMHSVHFI	1.4
DELDDITEHLLHRFVDSLITGDEDLLEKYADPNAKLIIEIGDKRIERHGMHRFYELLLRFKNVKLDVKEIHVQGDKATIESTLQYGDKKHDTRLEVEFYDGRLKIIRWEIR	2.25
DELDEELHKLFEKYLRSHLTGDFHSLERLLDPNARLIWIVDGKMINIHGREDISRFLREWEEEARHHHHELKEVDTQGNYFHSRMHEDGHINGVRRKIHVTHNIVMIDGKLESITHIII	1.08
DELDEFREYWIRYVEEVFRTGDFEKHLSLMDPNARVLVDGKELHGREFLEVHMRRIKNATVRDVHHHDMEIQGDKVTLDVDVHVNVNGRDVDKHVLIISEKVNGRWISRSLEVR	0.628
DELDEILVRIAEMVVEIWETGDWEWLEHLLDPHVRLQIGDKEVHGREAIREMIHELLNKLPNIRSHIRLREVRYYNGKAHFNTELRLHINGRDLRSRVRYEILVVDGRVRSMHVEIR	1.09
DELDEQVEELARDIIRNWHTGDEERWEHLADPHVRVTIDGRLHIGREEAMKMLRHWLKRIDHITVNIRRIHVFNGRSEVHSELTMHVGDKNIHHHEIINIVIVDGRIHNQEIHLK	1.39
DELDHDIERNLRLWLEALYTGDFEFLLRLVDPNVRMHINGVNDHGWKFAEFLIRRADHSEMEIRIRHVHEVNGVLRMDGEVKFDIRQGDKSREKHIEVHMVLMKVNGQWFVKSFEFK	1.47

Sequence	protease stability score
DELDHEIRHVLHIIHHLLLTGDEEIFEEMADPDPRLDLVYGDKKIHVHGWKNILDMLKRLLDHWRIRHVEIKRITTQGNKAHLDTRSNLIINGRELIVIIELNVVTFNGVMKDMRIKIV	1.65
DELDKLAHIMMEEILRNWVTGDEDRHNELADPTVRMHSIVGDKHLEIHGREIFTEFLKRIKNVTFEIRLTDLKIQGEKAHSHTRLILRFDGQQVERDTEVTIIVINGRVKDVSIIIR	1.06
DELDKRTREFTRLFLEWEETGDFHTMLNFLDPNARVDVNGVHLIGREKMVEHFLTEHERIDHREWHLRRIHYYDGRSDIDGHITLFVDGQEIHIRVHVIFFVVDGRMHMVEKRII	0.751
DELDRISTRLADLFIHLVETGNWEFLKELLDPDVRMIIGDFELVGRETIIEFFEKLERHLGVDHSEIVIERRHSQGEKAELHTRLIVRVNGRKRVIDTRLELHWVDGRLKEINIHEH	1.17
DELDRLAEDWVKIIIHSLKTGDEDTLHKMADPNYQVEIGDFRFHGRERWIHVLREHREELGVTRVHSELHELHTFNGRAVSVVDLHVNGVTLHVIVFVRKVNGRWQDTSQVYKYE	0.491
DELDRLMRHISKLWVELLLTGNEEITSHLADPDARLHINGRDTIGREEYIRMYHEWLNEIRIRDFHIHSIKTQGNKANTDSELDLEVNGKRLDLRITIIILNINGRMKSVKVEVI	0.99
DELDRRAKKMLRIWLEERFTGDEETVSKLADPDTRTQIHVGDKDLVSIGMESVSEFLRRMIHHWRIEHVKVKDTKVFDGVAHLHGEIHGNIDGQRVDVRLEVRVVVINGRIHSMSEEFT	1.61
DELDRTVEEVSRYFMRNYITGNEERLWEMADPHVKFISEHHESHGMEEHKKFLEEAGITNVKFDIHDQKVFNGVVVVNGKIHVNGRTVDVRLISEKFDGRWHLHIIRVD	1.15
DELDSILEEFARVFMQNLETGDEDSSRHYLDPHYRVELDIGDWTIQMHGWRSDHIRRRYLGADHERILIRDYRVYNGRIRVEGQMDITVNGKRVTYHTEFILHVVNGKATRVSMKFE	0.707
DELEDDSRRAMETLIEIEKTGDWDLMYQLADPHVKLDINGRIIHGRDEFERRIHEHLTELGIKHHHVKHFQIRIVDGRMEVRLDGILRFNGKDLDVEIVLIVLKVNGRWLLEHSSVKYK	1.38
DELEDLAQKTHELFVQHYRTGDEDHLRHLLDPNAIMEIGDYHFIGREEILKFLVHWRIHRSEIKHLHVQGDKAEQEVEVDIEIGDKRFRTETHSIWIKINGKWFMHDFTVK	2.17
DELEEDSKKFFEILIKAYWTGDFTTLSRMMDPHVRNDINGRDIHGMEELSRVETEISRKYGADHFDFHIKDFKVQGEKLTVHGRIIIRVNGKTFEHDEIFYLIKIDGKWTWESVEVL	0.989
DELEEDVRSSLKVLLHSHRTGNEELNEKMADPNARVTVDGVEFHGREEMVHWISHIRVERFILRSVHFQGDKLHIDGESDGVVNGRRWRRRTHIIELKVDGKWVLKSLIFE	1.46
DELEEELDQFQKLMVESSKTGDEDTEKKLADPNVRVDINGVILHGMENFVEFMRHWRIKHIHNKEVRFINGRAHVTGDVEGHVNGRDTRTRVTLIIIKINGRWFIEEVKFD	1.37
DELEEELETAERISHEVLDTGDERIWSKLIDPNARLQIGDKEYHGREEVQRFFLEFGFKVSDIHSVKVQGDKIHVDTRSRVDGKEIELQLNSEKINGKWVLRHIHVWKR	1.28
DELEEETERMFRIIIEFMLTGDWKTLYKLFDPNMLMIINGKELHGRESMATALKFWLRHIREDDIKIHHVELQGEKAISDGRSRGEIGDKEQTRKVHIEVIVINGRVHHVRVDIH	0.819
DELEEETREAIRLMFESVKTGDEDSIKHLADPHVRVLINGRDDHGMKILHHLFSRFKNLTIELKRVHVYGEKAEVHTNWHINGRYYHVIWILIKINGRWFIESIEIH	1.61
DELEEETRFILEYLRHSWKTGDWRLESRMADPDVRLDVDGKHLHGREMVSHFAKRLSERVDHSEFIERDLRIQGNKIELHGELILRFNGVEVHRELHLHISKVNGRWVLKDIRIG	0.831
DELEEETRRFAKHWVESLLTGDEDKLSRLMDPNVILDVNGREHIGWERAVHHLSRLLKELGAKHINVRLHELRIYDGVAEIDSRLQIIVGDKTEEHNVKLVITKVDGRWVVKSITIH	1.95
DELEEEVLKALDEWLRSLATGDFDTLTHLMDPNAKTHIGDKHYHGRELLEIWIKRVDHVHRLHFRLRRYRVVGNKVELDGELEIDGEINGRHTNHSEDIRIVLHKIDGRWVVESMIIR	2.53
DELEEEVMEFIRVFIHLLNTGDEDHLHELIDPNVRVEDENEEKHGRDTVEHMQRFFKNLRVTDLKVETFEVQGEFVHVHVDIEERVGDKHFHYKVLYIILKVDGRWLMHQVRFH	2.12
DELEEFLHTIMELVVRNMFTGDEDSFNNLADPDVKSHINGKNAVGREEIIRVWKEWVEEIRTTHYDIHDFTIIGDKAHSDTRVDGTFNGVRDTIDTRVIVLVVDGRLKSLEIRMH	0.986
DELEEILEELFRRMLEWLRTGDEEAMSKLADPHYKLLWNGREHVGREVILERLEKINQHLRIRHIHIHEIRFIDGRVESDTRVDGEVNGRRTEYTQKVIIFIVNGRFKFLEIQLR	1.71
DELEEISDTALKMFEHVVKTGDWRELEKLLDPNVKIYYNGREYHGREEAVRIWKEILDRFGADHFELRLRHKHVQGDKVSYHIELRLHYDGKTHHTFMRIIFLKVDGKWLEHELHIH	2.38
DELEEISRRAQELSLRLFHTGDERSWERLVDPHAKLDVNGVDVHGRELVHKFFERNIRELGIKHIHLEHEEVQGNKVKLIMHINVNGVERRLVIIAEKIDGRWVLREHKEE	0.464
